Laboratory results taken from PMC2666730, “HMGB1/2 can target DNA for illegitimate cleavage by the RAG1/2 complex”.

T1: cMR1 (core RAG1, MBP fusion);cMR2 (core RAG2, MBP fusion) (;, UniProt P15919;P21784 384-1040;1-387, |)
T1 sequence 1: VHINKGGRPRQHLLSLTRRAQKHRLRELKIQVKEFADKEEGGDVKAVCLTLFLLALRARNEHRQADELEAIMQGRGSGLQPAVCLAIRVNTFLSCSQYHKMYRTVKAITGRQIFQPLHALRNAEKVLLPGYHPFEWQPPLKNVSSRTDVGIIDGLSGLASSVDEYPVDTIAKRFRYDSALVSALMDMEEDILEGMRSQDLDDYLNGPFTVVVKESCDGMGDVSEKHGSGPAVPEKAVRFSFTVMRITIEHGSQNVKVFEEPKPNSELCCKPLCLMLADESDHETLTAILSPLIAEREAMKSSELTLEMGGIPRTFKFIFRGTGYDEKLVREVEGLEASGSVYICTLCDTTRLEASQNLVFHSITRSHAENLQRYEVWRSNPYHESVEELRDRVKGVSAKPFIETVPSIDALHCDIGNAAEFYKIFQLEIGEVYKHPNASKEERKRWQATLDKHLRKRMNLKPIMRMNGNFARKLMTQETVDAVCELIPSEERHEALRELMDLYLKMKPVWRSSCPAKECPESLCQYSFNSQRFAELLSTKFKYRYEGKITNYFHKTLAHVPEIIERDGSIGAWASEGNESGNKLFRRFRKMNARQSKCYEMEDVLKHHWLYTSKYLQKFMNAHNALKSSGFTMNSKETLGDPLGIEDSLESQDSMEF
T1 sequence 2: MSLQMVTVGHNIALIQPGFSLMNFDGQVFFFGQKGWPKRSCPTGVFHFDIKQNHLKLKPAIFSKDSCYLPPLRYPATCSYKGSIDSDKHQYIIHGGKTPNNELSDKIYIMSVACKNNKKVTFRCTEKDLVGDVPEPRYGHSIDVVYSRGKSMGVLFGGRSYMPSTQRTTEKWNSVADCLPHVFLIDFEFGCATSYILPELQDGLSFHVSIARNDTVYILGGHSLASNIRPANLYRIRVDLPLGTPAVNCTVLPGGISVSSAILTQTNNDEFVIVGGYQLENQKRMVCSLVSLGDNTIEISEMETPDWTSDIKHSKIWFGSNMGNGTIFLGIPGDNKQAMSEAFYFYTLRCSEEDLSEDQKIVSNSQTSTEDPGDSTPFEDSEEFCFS

B1: bps6197 (dsDNA)
DNA 1: TCCCCGAAAAGTGCCACCTGACGTCTAAGAAACCATTATTATCATGACATTAACCTATAAA
DNA 2: TTTATAGGTTAATGTCATGATAATAATGGTTTCTTAGACGTCAGGTGGCACTTTTCGGGGA

Assays:
[1] = target: T2, HMGB1 Tailless (UniProt P09429 1-163); test: EMSA; details: EMSA as in ref 30; binding buffer, salt, pH and temperature not given in the material; scale: fold more protein needed than for bps6197
[2] = target: T3, HMGB1 full-length (UniProt P09429 1-215); test: EMSA; details: EMSA as in ref 30; binding buffer, salt, pH and temperature not given in the material; scale: fold more protein needed than for bps6197
[3] = target: T3, HMGB1 full-length; test: EMSA; 0-320 ng HMGB1; EMSA as in ref 30; binding buffer, salt, pH and temperature not given in the material; details: protein: recombinant; tags: N-terminal His6; label: 5' radiolabel, top strand; blunt
[4] = target: cMR1 (core RAG1, MBP fusion);cMR2 (core RAG2, MBP fusion);HMGB1 full-length (;;, UniProt P15919;P21784;P09429 384-1040;1-387;1-215, ||); test: EMSA; with HMGB1; similar to 23-RSS; EMSA as in ref 30; binding buffer, salt, pH and temperature not given in the material; details: protein: recombinant;recombinant;recombinant; tags: N-terminal MBP;N-terminal MBP;N-terminal His6; chain copies: 2;1;1; label: 5' radiolabel, top strand; blunt
[5] = target: T2, HMGB1 Tailless; test: EMSA; 0-140 ng tailless HMGB1; EMSA as in ref 30; binding buffer, salt, pH and temperature not given in the material; details: protein: recombinant; tags: N-terminal His6; label: 5' radiolabel, top strand; blunt
[6] = target: T1, cMR1 (core RAG1, MBP fusion);cMR2 (core …); test: EMSA; without HMGB1; similar to 23-RSS, slightly more susceptible to cold 23-RSS; EMSA as in ref 30; binding buffer, salt, pH and temperature not given in the material; details: protein: recombinant;recombinant; tags: N-terminal MBP;N-terminal MBP; chain copies: 2;1; label: 5' radiolabel, top strand; blunt

T2 sequence (P09429 1-163): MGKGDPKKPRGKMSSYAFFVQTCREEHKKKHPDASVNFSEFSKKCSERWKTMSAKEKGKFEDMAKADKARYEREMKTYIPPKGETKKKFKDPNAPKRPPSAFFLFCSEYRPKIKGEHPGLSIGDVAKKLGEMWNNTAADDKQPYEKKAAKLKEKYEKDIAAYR
T3 sequence (P09429 whole entry): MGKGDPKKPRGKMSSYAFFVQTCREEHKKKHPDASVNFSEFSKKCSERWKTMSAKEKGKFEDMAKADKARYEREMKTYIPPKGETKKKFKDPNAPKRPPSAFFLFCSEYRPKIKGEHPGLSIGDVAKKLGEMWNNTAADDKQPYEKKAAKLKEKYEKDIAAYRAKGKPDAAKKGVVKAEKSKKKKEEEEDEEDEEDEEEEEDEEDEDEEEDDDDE
Sequence of cMR1 (core RAG1, MBP fusion);cMR2 (core RAG2, MBP fusion);HMGB1 full-length (P09429 whole entry, the tested form may be a part, one chain of several): as the sequence (P09429 whole entry) above

Row | Molecule | binding signal [1] | binding signal [2] | binding signal [3] | binding result [4] | binding signal [5] | binding result [6]
1 | 23-RSS (consensus) | 1.5 | 1.5 |  |  |  | 
2 | B1 |  |  | ~1.5 fold less protein needed than for 23-RSS | binds | ~1.5 fold less protein needed than for 23-RSS | binds
